The source of these data is a protein production outcome set (Wang et al. 2014).
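Further: failed if final PepcDB status was selected cloned or expressed and not failed if soluble or beyond.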

The nature of this data set: label from the status in PepcDB records.
“MKAALHNLGCKVNSYETEAMEQMLIAAGYEIVPFCEDEKADVYVINTCSVTNIADRKSRQMLHKAKKQNPNAIVVAAGCYVQARGDELAADDMVDIVIGNNRKNRLVEIINDYIGNNSNNEAVVDIAKTHEYEELNIYDVCEHTRAYIKVQDGCNQFCSYCIIPYTRGRVRSRRPEDVTAEVRRLVEKGYKEFILAGIHLSSYGIDFEAPCDEAVDYRAANMPGSRLLELIEAVCSVEGVKRLRLGSFEPRILTEAFVKRMAELEPVCPHFHISLQSGCDATLKRMNRRYTADEYEESCKLLRKYFPNAAITTDVIVGFPQETDEEFAITKEYLERIHFYEMHVFKYSRRKGTAADRMDGQVPEPVKTARSAGLLELEKRMSREYRESALGSIQEVLFEEVAGTCDDCGTSVITGHTKTYINVHVKLPADMSLEYINKICNVKLEHLSDDGEWVNGTLCG”: the protein production entry was “failed”.

For the sequence “MKAALWMAGWLALMVIVAVAGRETLRELSVFQVMELRSVIGFAMLYPLIHKFGGLTAMATARPLAHLSRNLVHYAAQLGWFYALTLISIGQVVSIEFTMPIWIAILAATFLGEHMNVWKITAVVLGLIGVVVIVRPATSSIEPGQLIALGAAVGFGISVTLMKSLTRTESTLAIIFWMLLIQSAAGLVPALWLWQWPSAYVWVWIVIIAFCGTFSHYCMARALTYADATIVVPMDFLRVPLSATAGWLIYGERLDAYTVIGAALILIGNLLNLRGAPRPPAAASIRNSP”, the protein production entry was “failed”. As to “MKAEKNLNKTLKISYKALFFSFALTLIKLLAGFLGNSTALIADSIRSFSELINELKKLLEVFIASKPEDWSHNYGHGKVATLFTGAGACILLFAGIESISLASQELLIFIQGRETEAPEILALSAASLTLVSREIIPLFSSKGKEIEGTLSGTGIYTRNAQIRSLLLSCFVTLGIGCTFLPGKNWVVTDSFIAALMSLYLLGTSGKLLYGTANELIEASLDEEDNKKIRKIINTTEGVTGSGELKTRKIGNGIAINACITVSDSLNIQEVAEIADRVENRLKTVYGEDIYALVKAEPDPGRNCSFRKKMEFSEEGRKENKGINTQDKMLA”, the protein production result was “failed”.

As for “MKAIIMAGGEGSRLRPLTCKRPKPLVPVANRPVMEYCVDLLRELGIKEVGVTLQYLPQLIEEYFGDGSDFGLHLHYFVEDKPLGTAGSVKNAAAILDETFVVVSGDALTDFDLRPAIARHKESGALATLVLTAVDNPLEYGVVITNPDGSIRSFLEKPSWGEVFSDRVNTGIYILEPEVLELIPEGRPFDFSKDLFPRLLKEKRPLYGVTLSGYWCDIGNLTQYRQAQEDILRGRVKVRVVGQDKGGGVVMGEGVEIAPGARIEGPVLIGGACHIATGAVVGPFTVLGPYTRVEEGATVRRSVLWDNVYTGEGANVRGAVVCSRASLQRRVQVYEGAVIGDGTQVDAGAEVRPEVKVWPEKTLGRETVVHESLIWGRGVARPLFVGSQAPGYLHGDLTPFQVTRLGMAYGASFPPGTTVGLSTFAGGAGEMLYKALAAGLMAAGVQVADLGRLLTPIHRFAVRSLGLDGGCHIKRDAAERDKVWLHLVNSRGHDLNPAAVRKIENLYWREDGRRVQEVPASIYFPGLEGAYRDWLLATLGDHGLKKRALRVALGGQGQVAGVAGTILQDAGAEVIRLDLDPAKTWQAVQEDLPYFAGEIRRYGADLGAALDSNGEELILFTGEGRRVAPAQQMTLLARVYLETHRGASLVLPVTAPRVLEQVAGGLHGRVERVKGHPGIYHEAMARADGETALGQQHLQLDALAALVHILDWLASREESLDSAVAALPPVYTASRTVACPWEAKGRVMRTLISEEPADGVELLDGVQVRHGKGWSLVLPDGETPHYHIYSEAFSQEAAEELAGFYEERLKELIAREKSKGR”, the protein production result is “failed”. In the case of “MKAIITVVGKDKSGIVAGVSGKIAELGLNIDDISQTVLDEYFTMMAVVSSDEKQDFTYLRNEFEAFGQTLNVKINIQSAAIFEAMYNI”, the protein production result was “not failed”.

Regarding “MKAILRASRIGRVILRYRLDALLEGTPAERWLRLAKPFVPRASAEIAAQSRGARLRLALQELGPIFVKFGQILSTRRDLIPADVAEELTLLQDRVKPFDGQAARLIVEAALGLPVSVAFASFDTVPLASASIAQVHAATLPPDANGVRREVVVKVLRPEIERQIDADIALLHSLATLVERTHPRADKIRPREVVAEIEGTLAAELDLQREGANASVLRRFWEGSDDLYVPEVIWSHTAERALTLERVYGIPSDDIAKLDAAGIDRKALAAKGVRVFYTQVFRDNFFHADAHAGNIWVDSDPERRLNPRFIALDFGIMGQLSQEDQYYLAENFMAIFHKDYRRMAELHVEAGWMPSNVRIDELEAAARSVCEPYFNRPLSEISLAQVLIKLFRVAQRYELTLQPQLILLQKTLLNIEGVGRQLDPRLDIWAVARPVLERILRERYSPRRVLRELSKRLPEIMTHAPDMPRLVYSWLTQQVEGRHQIAIRSPELLALDLSLRKLQTRVVTAITGSGLLVVAAVLYGLHPDGWYLGTVPVWSWISGGAGSAALLVAWLRR”, the protein production entry was “failed”. On to “MKAKIYYNGNIITMEDSICGDAILIKDKIIKKIGTKEEVFALKNKDTEIIDLQGKTLMPSFIDSHSHLIAFATTLKLVPLEDATSFKDIVKKIQDFKESLEHHHHHH”, for which the protein production result is reported as “failed”.

For “MKAKPLSQDPGSKRYAYRINKEENRKELKHVKINESSLVQEGQKIDLPKKRYYRQRAHSNPFSDHQLEYPVSPQDMDWSKLYPYYKNAENGQMTKKVTIADIGCGFGGLMIDLSPAFPEDLILGMEIRVQVTNYVEDRIIALRNNTASKHGFQNINVLRGNAMKFLPNFFEKGQLSKMFFCFPDPHFKQRKHKARIITNTLLSEYAYVLKEGGVVYTITDVKDLHEWMVKHLEEHPLFERLSKEWEENDECVKIMRNATEEGKKVERKKGDKFVACFTRLPTPAIL”, the protein production result is listed as “failed”.

Turning to “MKAKSLMVVGTTSHAGKSLLAAVICRWLAQQGYRVTPFKGQNMALNAYVTREGGEIGYAQAMQAWAAGIEPEVAMNPILLKPQGNMTSQVILRGQVVGVTRAADYYRDYFERGWQAITEALADLQQRFDWIVCEGAGSPAEINLKHRDLTNMRVATYLGAPTILVADIDRGGVFAHIVGTLMLLEPAERALIQGIVINKFRGQRSLLDSGLQWLEETTGVPVLGVIPWLERHYAAEDSLDLWDPRPQRQGADLKITVIRLPRIANFTDIDPLLAEPSVAVEFLPPHRPLGRPDAVILPGTKTTIADLQVLRETGMAEQLKTYAAQGGTILGICGGWQMLGTAISDPLGLEGCPGTYEGLGLMPLHTQLGPTKCTQQQQTQSLYFNCPEPILGYEIHQGQSEYTGDRQGWHPLFAAPELGLVNRAGTLWGTYLHGLLENGPWRRHWLNGLRSRRQLPPLPTAIPHYGEQRTVALDELTKTVMAHLNLRGICKLC”, the protein production entry is on record as “failed”.

Consider “MKALHFGAGNIGRGFIGKLLADAGIQLTFADVNQVVLDALNARHSYQVHVVGETEQVDTVSGVNAVSSIGDDVVDLIAQVDLVTTAVGPVVLERIAPAIAKGLVKRKEQGNESPLNIIACENMVRGTTQLKGHVMNALPEDAKAWVEEHVGFVDSAVDRIVPPSASATNDPLEVTVETFSEWIVDKTQFKGALPNIPGMELTDNLMAFVERKLFTLNTGHAITAYLGKLAGHQTIRDAILDEKIRAVVKGAMEESGAVLIKRYGFDADKHAAYIQKILGRFENPYLKDDVERVGRQPLRKLSAGDRLIKPLLGTLEYSLPHKNLIQGIAGAMHFRSEDDPQAQELAALIADKGPQAALAQISGLDANSEVVSEAVTAYKAMQ”, for which the protein production entry is recorded as “not failed”. With “MKALSPVRGCYEAVCCLSERSLAIARGRGKGPAAEEPLSLLDDMNHCYSRLRELVPGVPRGTQLSQVEILQRVIDYILDLQVVLAEPAPGPPDGPHLPIQTAELAPELVISNDKRSFCH”, the protein production entry is “failed”. Then “MKARLLIVVAVLALTACATTTSPTGRRQVVGGVSQQQLDQLGAQSFAQTKAKEKVSTDGKQNAYVQCVVNALVAQLPPQWRETKWETALFVDNEANAFALPGGKVGVNTGIFTVAKTQDQLAAVLGHEIGHVISRHHEERITRQLGAQTGLGIIGALAGAAYGDGAASAVNQVGGMTAQTVFLLPGSRTQESEADVVGQRLMAQAGFDPAQAVTLWQNMMAASGNRQPQWLSTHPDPANRIRELQADVAQLEPVYQQAKQSGRAPRCG”, with “failed”. Take “MKATLFVREFLLNPRTIGAILPSSDYLAEKMMASVCFEQAKYIIEYGPGTGVFTDKILRYRHPDTVVMIIEHNREFFCILNEKYQDEKNVIIINGSAEHIETYVKEHNIPFVDYIISGLPFASLPLHVSNAILNKARYLLGVKGKFITFQYTQTKVRLFTQFFNQMTVERVYRNLPPAFVFSCYNEKLEHHHHHH”: the protein production result is listed as “not failed”. Consider “MKAVANRYYVLCQEKVFIRSLLSGFFLLFISFLIMNFAGKYASLMAGNPVNDLILDNLPLRDVTLFHVNAAIIFWTIFTIYTLLNPAFIPFITKSAALFILIRCAFISMTHLGAPPNQLSIPDNFSSLVLFDGDLFFSGHVGGPFLMMLIFWNKTTLRYICLAAAVFFAYTVLIGHIHYSIDVFAAPFITYGIFHIGQFLFASDYQRLKSELTSSTGN”, for which the protein production result was “failed”. Then “MKAVILAAGRGSRLQALTDERPKALVPFNGVPLLQRAIETLRRCDVSEVGIVAGYRSEMLAPFADTLFYNHRWHSSGIFSSLNCASDWLSAEPCLVSYGDIFYDSTLVSELINHPADIVLGYDPAAVRLWQQRFNDPLPDLENFRLVDGWVSAIGQTATSLEVIQGQYMGLFKVTPAGWQALKKQLQGLTPQARDQTDMTSLLGTLVSEGFPVAGVATHAPWGEIDCPSDVALYERIYPDRLEHHHHHH”, with “failed”. For “MKAVLFDLDGTLIDTAADFIRIIQEMCREEQREVVDADLIRTQVSEGARAMVKLVYPELAVDDAVFLTHRQRFLDRYEQNIVVDTDLFKGMYPLLEMLESQQIPWGIVTNKPRHLTELLLERLNLTERCAVLVCPEDVQRTKPDPEPMFLAATQLHIAPEQIIYVGDHPRDIDAGRAAHMYTILAAYGYLPLQHKDNLNAWQADVIVQHVTELQKILSQQLHITPLNQDTMLQTS”, the protein production entry is given as “failed”. Regarding “MKAVRVHILGSGGREHAIGWAFAKQGYEVHFYPGNAGTKRDGTNHPYEGEKTLKAIPEEDIVIPGSEEFLVEGVSNWRSNVFGPVKEVARLEGSKVYAKRFMKKYGIRTARFEVAETPEELREKIKKFSPPYVIKADGLARGKGVLILDSKEETIEKGSKLIIGELIKGVKGPVVIDEFLAGNELSAMAVVNGRNFVILPFVRDYKRLMDGDRGPNTGGMGSWGPVEIPSDTIKKIEELFDKTLWGVEKEGYAYRGFLYLGLMLHDGDPYILEYNVRLGDPETEVIVTLNPEGFVNAVLEGYRGGKMEPVEPRGFAVDVVLAARGYPDAPEKGKEITLPEEGLIFFAGVAEKDGKLVTNGGRVLHCMGTGETKEEARRKAYELAEKVHFEGKTYRRDIAL”, the protein production result is listed as “not failed”. On to “MKDCCGGYESEELLMDFSGKDKAAYVQDTFNSIAKRYDVMNTLMSFGLDKGWRKKAVQTVEAKPGMTMVDICCGTAQLSLELAMTVGEQGQITGLDFSENMLKKAQENLAGSPYRSIIELRQGDAMNLPFADNSFDGATVGWGLRNLPDLEKGVQEMIRVVKPGGMVVSLDMAKPTMPGFKQGYWLYFNKLVPLMGKIWAGKAKAYQYLHDSAVEFPSQQELANIFARCGLTETRYQNLAGGVVAIVSGRKPR”, for which the protein production result was “failed”.

Consider “MKDFWTWERLSFHMVLAYNDDRSFLINTGMPLDLTLRNQEMKKFAGDRAIFRSEDSIEMLRKAGFTPDDIDYVALTPVQDYTIGRLNEFRKSKIFIFRDGWIKDIAAPAYAYFHNRDLFIPKNIFDFVYGEGWKNIIFYDGETELVPGIRAIPVGCHHRSSVAFAINAKDGTYVFTDASFKAENVRNRIPIGIAENIYECLSAYEKIEKIGKLLPAYDPAIDDLYIKLEHHHHHH”, for which the protein production entry is “not failed”. Turning to “MKDIVIIGTENIGKEVVKIIEAINSKRNTWNVLGFISLKKDEEGSNIEGYSVLESIDSMFNYFEGRKKDKFYFFKKLESQNELFTIIAIDNCKLKKEIENKLKNKIKFATIIHPDVSFFNKQEVGEGTIIYPGLIVVGRFKLGKHVILKQKCSLGNNIEIGDYSFISFNSNIDSNVMVKEGSYIEANTTILANSNIDKNTYIKEGSILY”, the protein production entry was “failed”.
